Reference: PMC4429956

Tests used:
Assay in all cases: SPR
[1] = biological target: PI5P; conditions: parent: est. 460; read off a plot
[2] = biological target: PI(4,5)P2; conditions: parent: est. 240; read off a plot
[3] = biological target: PI3P; conditions: parent: est. 370; read off a plot
[4] = biological target: histone H3 peptide trimethylated at lysine 4; conditions: parent: est. 490; read off a plot

Row | Substance | response [1] [RU] | response [2] [RU] | response [3] [RU] | response [4] [RU]
1 | GST-TAF3 PHD finger, wild type D890; W891 | 400 | 120 | 270 | –
2 | GST-TAF3 PHD finger, wild type K922; K923; K925; K926; R927; K928 | – | – | – | 570
